The DeepSol protein solubility set

Assay: soluble on expression in E. coli; label from the status in PepcDB or PDB records

Row | Sequence | soluble on expression in E. coli
1 | MGQSEPIVLVIFTNKDNKSDKPNDKLISETAKSVMKEFAAGSKNAAKELNDLEKKYNAHIGVYALDTKSGKEVKFNSDKRFAYASTSKAINSAILLEQVPYNKLNKKVHINKDDIVAYSPILEKYVGKDITLKALIEASMTYSDNTANNKIIKEIGGIKKVKQRLKELGDKVTNPVRYEIELNYYSPKSKKDTSTPAAFGKTLNKLIANGKLSKENKKFLLDLMLNNKSGDTLIKDGVPKDYKVADKSGQAITYASRNDVAFVYPK | soluble
2 | MGREMMELNENRALAGGRTGSLRNIKRPLAITEAERQAVRDINLAHLDITSIDFDLFYLRENMELPLDAAAAVAYRLIVGTGLPQKLRCRDDTLLNFILQCRKKYRNVPYHNFYHVVDVCQTIYTFLYKGAVCEKLTELDCFVLLVTALVHDLDHMGLNNSFYLKTDSPLGILSSASGNASVLEVHHCNLAVEILSDPDSDVFEGLDAADRTLAYRSMIDCVLATDMAKHNELLNLFLAAMEKPYQIGDVASRQMMMDVIVKAGDVSNVTKPFDISRLWAMAVTEEFYRQGDMEKEKGVEVLPMFDRSKNTELAKGQIGFIDFVAGPFFKKIVSASLTGMQWTVERVESNRLEWQRTLDVKAAGDGNK | soluble
3 | MGRKISVIIPTHYRNDLLPTAIESVARQDYEPVELIVVDDSGEGYAEPVLSEYDEVIDRPIIKEENEGWQAAYTTGIEQSTGEYIQFLDDDDYLYETKLKKTANVLDQNPEVGVSYCGVVRGDEGDFYPKQEVSGHFLEPALRFQTFPMWTGSMLMEREVLCDCLPMAGMGEEDDLDIELGDTDLKIELAKRTKADYVDECLTFYRQEGNKLWTGKRRFKKILQNIRHQKDIYNQYPEIRRDLLAEWYERQGRNYLNEQIWSAQAIQCFIKSAYYERKQKFPRIIETLAAILGRPGVMSAVRVKRTLLDGLEHHHHHH | not soluble
4 | MGRVDGLDKFKGLFDALEPKSEGQRELKEALLSDVDLVGVFGPTGTGKSLFSIVYGVSMTAEGRFRRVVLARPVIDVVTGRELTVMTDAQSYRRLAAEYLMDILSGFLGEERVREILSSDSLVLVDPHFLRGRTFDNSVIIVDDSQSMPPEAIVEIITRLGTGSKLIVIGDPVFQRTSEPGLDGASMAREILSNEPTAEVVDLGLKDIVRPGAKRGVKMLMELLMRRRTLNQAEKEVIEAARMHSPDADIITAVDLQDAKRKWGIESDHVPDVLVVVKEGHLGRFIGRGGERIEKIEGETGLRIRAIEHTLDLKEIVRAIHPVSWIHKHVIDFDFAGPQLKIKVSKEHMGPMLGQKGAHIRFLDEIVRKLLGVGVFVEEVEERRGRRRRR | not soluble
5 | MGRYKDETPAVRVYTVCDESRYMIVRNVPALGCGDDLMRLFMTYGEVEEFAKRKLDESSFLGNRLQISYAPEYENVNDTKDKLESRRKEVLARLNPQKEKSTSQVTKLAGPALTQTDNVSSQRREMEYQFHRGNAPVTRVSSDQEYFASSSMNQTVKTVREKLNKTREENISSLSHCKQIEESGNQKRLQPSSQTQPEESGNQKRLQPSSQIQPDLKRTRVDNRRRI | not soluble
6 | MGSDKIHHHHHHAADWQLEKVVELSRHGIRPPTAGNREAIEAATGRPWTEWTTHDGELTGHGYAAVVNKGRAEGQHYRQLGLLQAGCPTAESIYVRASPLQRTRATAQALVDGAFPGCGVAIHYVSGDADPLFQTDKFAATQTDPARQLAAVKEKAGDLAQRRQALAPTIQLLKQAVCQADKSCPIFDTPWQVEQSKSGKTTISGLSVMANMVETLRLGWSENLPLSQLAWGKITQARQITALLPLLTENYDLSNDVLYTAQKRGSVLLNAMLDGVKPEANPNVRWLLLVAHDTNIAMVRTLMNFSWQLPGYSRGNIPPGSSLVLERWRNAKSGERYLRVYFQAQGLDDLRRLQTPDAQHPMLRQEWHQPGCRQTDVGTLCPFQAAITALGQRIDRSSAPAVAMVLP | not soluble
7 | MGSDKIHHHHHHAAPGDLQEKLAALKGISGIEKLQSDYYPEKYVVRITQQVDPKDPAAGTFTQRVIVGHVGYDRPTIIVTEGYGAAYALNPKYQEELSKLLNANLVFVEYRYFLESTPEPKNWDYLTAENSAYDLHNVRNTFKQIYPGKWISTGISKGGQTTMLYRAFFPDDVDFSVPYVGPLCKGVEDGRHEPFLRKVGTKAEREKIQDFQLEVLKRKSDMLPLLESYCKNKNLTFRIPMPEVLDYCVLEYSFALWQWGTSVSTIPSKSADDQALFDHLMEISGPDYFAENQPNISFFVQAARELGYYGYDVKPFKKYLTIDSAHGYLNRIMLPEELVGKVDFRPALYHKIYNFLKDNDPKMIFIYGEIDPWSAAMVPAFKGKKNEQIYIQPRGSHRARIGNMPEDMKERILTQMNKWLAE | not soluble
8 | MGSDKIHHHHHHAEEKNLSEQWPVVASYQWAGQDSVVVCDLSLLKDTVDLPFSFFLKDFQIIKLDNRDEAMVGENNLCVSENYILVYGSVYELHPCRLFTKKGEFVTNIGAIGQGPGEYRAVYKAEIDEKHNCIYLMPFANSNAIYVYDLAGKPLRSIPLHQPVSKAVFKVDADKRELTVGALPFTGYPFVAWVQDFEGHLLDSVPAARHLSVLPDYSNEVMYGANTEVFDLYISTFFELRPDTLYHYIRSESRLKPRFTLNIGDRKRSITTFYELPQAYVGRLMVEEQVGDGMWETKSPSNFIVDKASLRGTFFRVINDFAGGMPDRLWTPWSLRNKQYIRLVEPGVLKAEIESYLSSTDGRKGKNRKKLQELCESIGEEDNSYVIYAKQKGVQ | not soluble
9 | MGSDKIHHHHHHAENNDDCFRGVPLQVKLPAGILSETMQDINIYVFDGSDRLLDILPIRSLEPVILSYPGIPSLHCIAWGNTQDGTMYVSPLKTGDPLSAGFISLKPSAVTRAQKSIFISPTDLFYGELNVDNTSTSNRIEEKEMSVSRMVASMNITIRGLELLSQSNEGVYSIVVHETASRVDFEGRYGGDPASYAFSPRFEAGKDYIIPPFNLFPTTVGSGISIDIYRNGSLLRSISTDSGNQPILPVVGKTLNVLLNFRLDVDVELALTGWGEEYIWKEYN | not soluble
10 | MGSDKIHHHHHHAIRANVMASNVDSLYSKVDTLSEQSKKNNVVREEFDYSALSFYVENFAKEYLNYNSKASDEAKKARIDRLSKYLSLDVKDVDETENLQGNVLRTFKNTSLSRIEKMEDCYLVYLNVNYELEKDKKTENVTQNMVLPIQVKDNLFSIVGRPYFVASSLPQGKTVSLKQTENSIDVDGKEKQSIEKFLKMFFTKYSVGNKQELMLLMKNPTTTAGQDSFVSIDSGDMKFFDTKQKGVTGVQVSVTFSDKTTKLTHTEDFSLWLSKTENSYFINTMKHYFTEKEGND | not soluble
11 | MGSDKIHHHHHHALGDQTLRKGQSHPDVKELQEALKKKGFFNYHTSTGYFGSITEDAVREFQMKHGLQVDGIAGPQTLNALLSQMNGNNGGQQTSSSAPNSTSNSTILRFGSSGQAVRDLQEKLKAKGYYNHSITGQYGRITTEAVREFQRANRLTVDGIAGPQTLAALTNQAPAASAPQYNAPVQQTTVLRQGSRGDAVRDLQRSLKDLGYYKSSIDGIFGAGTTTAVREFQRKMGLTVDGVAGPQTLNALHVNPTPNTSNGQSSSSGGNTASSGNRGATITNIVANASELIGTPYVWGGTTPRGFDCSGFVQYVFAQQGVSIPRTVAQMWNAGTSVSQPSVGDIVFFDTTGGPSHNGIYIGNNQFIHSGSSTGVTIASMNNSYWASRYLGAKRLY | not soluble
12 | MGSDKIHHHHHHAQNQDCAFFFPNQEGEQITRNCYTADGKLTNILVYRVDQAYEYPSGMEVVANYTFADAAGKTLNSGQMVARCSDGNFSMSMGDVATFPTALNMMNADVYMMGDLMNYPDAFSNPMNPGDDDEFDDGTLRLYQKGNKNNRAEISVFDREFVTTETVNTPAGAFYCTKVKYEMNIWTPKETIKGYGYEWYAPNIGIVRSEQYNNKKELQSYSVLERIKK | not soluble
13 | MGSDKIHHHHHHAQQLNVQGDLVSSYVWRGMYQTGASIQPTLGFSVGNFSLTAWGSTDFDGTSASAGAAAKEIDLTAAYTLGRSGLTVSVADLWWAGQGARKYFNFKSHETAHHFEAGVAYTVQSETFPLSVAWYTMFAGQDKNAEGGQNYSSYVEFNYPFRVRMVDLNVTCGMVPYAAPQYNCDGFAVTNVALKGTTQIRFTDKFALPVFAQAVWNPRMEDAHLVFGITLKP | not soluble
14 | MGSDKIHHHHHHAQTWENVHFNVDWQMNVPLNSNFADKFSGWGMNFEGKYDLTPYWAIGAFLNFHTNHRYVDRRTIPLTPTASLTTDQQQSAFQLPFGISVSYKLPDNRYVKPYFGVKSGAMYSQNSIYNNLVQWYERPWGFYVSPELGMDIHPVPYQRLGFHVAVYYSYATNKTDILTYSEDGRNSMGVRVGVCF | not soluble
15 | MGSDKIHHHHHHAQYTNIQTWGQKLYYNGSDYPGTFLKLKVAVANPRISGTGGKVVFYDSESSQYNYIEVKGVYQSSDARLKTNITPLNSGLGTILGLKPVSYNWKSETSQLRSAEAVPSKAFGFLAQEVAEVMPEIVTLSSTGDSLVDYTAVIPVLVQAVKELDATIQQLELQLDEKANLSDLQNNKNLTSKSLLSNAVMNQNTPNPFNSTTNISFTIPTSARSAFISICNLQGTQVKKFDIATRGEGSIMVSFSDLGVAGMYMYSLVVDGQLISTKRMLLVQ | not soluble
16 | MGSDKIHHHHHHASPGPGEIANTQARHIATFFPGRMTGSPAEMLSADYLRQQFTQMGYQSDIRTFNSRFIYTTKDNRKNWHNVTGSTVIAAHEGRVPQQIIIMAHLDTYAPQSDADVDANLGGLTLQGMDDNAAGLGVMLELAARLKDIPTHYGIRFIATSGEEEGKLGAENLLKRMSDAEKKNTLLVINLDNLIVGDKLYFNSGKNTPEAVRTLTRDRALAIARRYGIAANTNPGRNPSYPKGTGCCNDAEVFDKAGISVLSVEATNWNLGKKDGYQQRVKNASFPNGNSWHDVRLDNQQHIDKALPGRIERRSRDVVRIMLPLVKELAKAEKTS | not soluble
17 | MGSDKIHHHHHHAVVSCDSILGEEEVDCSVEYRVKFKYDYNMKYADAFSREVGTVTLYAFDDNGKLVYQKTEEGDVLGEEGYTMKVDLEPGDYHLVTWAGLNDEASFSVPLVTAGESSLDELQCRMDRLYSRAADGTAVVNSKLSALWHGEVTKQSFSRAASSQVVTVPLVKNTNTIRIILQQMDGVTVEVDKFEFTITDDNGLMNYDNKLLEDETLTYYPYYRMQGGTDMGIRADGDAEDSNISVAIAQITVGRLVVENNPRLTITNKETGEPVLSIPLVKYLLLTEAEGHEMTNQEYLDRQDEYNMTFFLDESMKWINTSIIINDWVVRFNELDM | not soluble
18 | MGSDKIHHHHHHCAASWVHPLTGAHLLLFGTEQGIYSFDTNCMPDGNLSKIHHRRCSWMFVYADRLTAIQGNTPYVYRHDLVALTQKNLTLKMSKNLNKIPEKYVPKRLAITVRMPETRGALQCTVKRGQGAQANSLFLCCAVRKTVHLFQWYNPMNQFVLVRSEPIREDIRFPIRPFALINSRTSDFPELCIGVGQMSGSNEYQFNMINFCSSTNNSELSGDLNSSYGSLADDEMLEVGSMHQIDRDTLCFSFRNKVVLTDLQGFERPKPSIFTFNFHIEYLHVVDGTILAFHANGVQGRDLKSNLNTQDLCDVSRLYRVIGDDRVIILRSQP | not soluble
19 | MGSDKIHHHHHHCELDRDPEGKDFQQPYTSFVQTKQNRDGLYALLRNTENPRMHFYQELQSDMYCTTITDGNSLAPFVNWDLGILNDHGRADEDEVSGIAGYYFVYNRLNQQANAFVNNTEAALQNQVYKNSTEIANAKSFLAEGKVLQALAIWRLMDRFSFHESVTEVNSGAKDLGVILLKEYNPGYIGPRATKAQCYDYILSRLSEAIEVLPENRESVLYVSRDYAYALRARIYLALGEYGKAAADAKMVVDKYPLIGAADASEFENIYRSDANNPEIIFRGFASATLGSFTATTLNGAAPAGKDIKYNPSAVPFQWVVDLYENEDFRKSVYIAKVVKKDKGYLVNKFLEDKAYRDVQDKPNLKVGARYFSVAEVYLILVESALQTGDTPTAEKYLKALSKARGAEVSVVNMEALQAERTRELIGEGSRLRDMVRWSIPNNHDAFETQPGLEGFANTTPLKAQAPVGFYAYTWEFPQRDRQTNPQLIKNWPI | not soluble
